The text below walks through data of patent US6410239B1, “Identification and comparison of protein—protein interactions that occur in populations and identification of inhibitors of these interactors” (CuraGen Corporation, priority 1996, dated 2002).

For series [1], the target named is T1, YULH(R4-GBD) and N106′ (FKBP-12-GAD) interacting hybrid proteins (Homo sapiens, UniProt P62942).
T1 construct: These primers flank the entire coding region of the FKBP-12 protein; expressed in transfected cells; host or cells: Saccharomyces cerevisiae YULH(R4-GBD) x N106'(FKBP-12-GAD)
The series can be described thus: 5-FOA assay identifying cells containing a non-genetically-encoded inhibitor of protein-protein interaction. It is filed as cell-based, yeast. On the procedure: The above method described for the isolation of inhibitor peptides can also be used to screen and isolate inhibitors that are not genetically encoded. In other contexts, for example, a yeast-based transcription-inhibition assay has been used to screen for inhibitors of the HIV-1 proteinase (Murray et al., 1993, Gene 134:123-128). The reporter strains YULH(R4-GBD) and N106′ (FKBP-12-GAD), that harbor the reporter gene-systems and the two interacting proteins are grown in a 96-well format with each well containing 200 μl of media that selects for both the GBD and GAD plasmids (SC-LEU-TRP).
After a growth period (24-36 hours) that is sufficient for early log-phase growth (a cell density of 1×10^7 cells/ml), the cells are exposed to an RNA inhibitor at a concentration of 100 nM for 1-2 hours. This RNA inhibitor is of the sequence 5′-[…]-3′ (SEQ ID NO:35). The pyrimidines in this RNA are modified with 2′-amino-2-deoxypyrimidines that causes the RNA to be resistant to nucleases. This RNA binds with high affinity to VEGF (Green et al., 1995, Current Biol. 2:683-695). […]
In the absence of the RNA inhibitor, cells are not able to grow in 5-FOA. […] The activity of the lacZ gene is determined by assaying the β-galactosidase activity of the cells as mentioned in Section 6.1.11. […]

In a further series the target is T2, VEGF (Homo sapiens, UniProt P15692).
T2 sequence (P15692 207-395): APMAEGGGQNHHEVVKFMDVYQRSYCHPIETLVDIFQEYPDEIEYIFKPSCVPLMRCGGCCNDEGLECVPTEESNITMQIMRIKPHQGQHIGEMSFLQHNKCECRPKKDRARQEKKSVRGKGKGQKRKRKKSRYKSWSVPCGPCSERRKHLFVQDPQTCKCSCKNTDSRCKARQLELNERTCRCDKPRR
Particulars: cited from earlier work.

Series [2] deals with T3, interaction between the RAF-GAD and RAS-GBD proteins (Homo sapiens, UniProt P04049).
T3 construct: expressed in transfected cells; host or cells: Saccharomyces cerevisiae diploids of YULH-RAFINT (RAF-GAD integrated at MER2) x N106' (RAS-GBD plasmid)
Nature of the series: Peptide expressed from pPEV1 tested for inhibition of the RAS-RAF interaction in yeast mating two-hybrid assay. Type of series: cell-based. The text has this:
These oligonucleotides also introduced unique restriction sites (EagI and SphI) that facilitate the cloning of the amplified DNA fragments into the integration vector R1400. The R1400 plasmid vector consists of two yeast genes LYS2 (Fleig et al., 1986, Gene 46:237-245) and MER2 (Engebrecht et al., 1991, Cell 66:1257-1268). The LYS2 marker is used for the selection of integration events, while, the MER2 gene is used for integration of the entire plasmid into the yeast genome. MER2 is a gene that is not essential for the vegetative growth of yeast. The RAF-GAD gene was cloned into the R1400 plasmid to yield RAF-INT. This plasmid was then digested with the restriction enzyme PstI that has a site in the MER2 gene. The restriction was done in a partial manner as there are other PstI sites in the plasmid vector. The restriction digestion was allowed to proceed only for 1 minute and then the enzyme was inactivated by extracting with phenol-chloroform and the DNA was then precipitated. This linearized DNA was used to transform the YULH strain to yield YULH-RAFINT. Integration occurs at the MER2 locus, and the integration events were selected by growing the transformants on media lacking lysine. The N106′ strain was transformed with the RAS-GBD plasmid to form N106′ (RAS-GBD). The proper functioning of the RAF-GAD fusion was confirmed by mating YULH-RAFINT and N106′ (RAS-GBD) and observing the resultant activation of the URA3 and the lacZ Reporter Genes.
The PEVs serve to express and localize peptides (or proteins) in the nucleus of the yeast cell where their potential to inhibit specific protein-protein interactions is tested. This inhibitory activity of the peptides is monitored by their ability to inhibit the activity of the reporter genes like URA3, HIS3 and lacZ.
The PEVs comprise the following operably linked components (FIG. 7): an ADC1 promoter (ADC1-P) for supporting transcription in yeast (Ammerer, 1983, Meth. Enymol. 101:192-201); a nucleotide sequence encoding an SV40 Nuclear Localization Signal (NLS) for transporting the peptide to the nucleus (Dingwal and Laskey, 1991, Trends. Biochem. Sci. 16:478); followed by a stop codon (UAG) for terminating translation; means for inserting a DNA sequence encoding a candidate inhibitor peptide into the PEV in such a manner that the candidate inhibitor peptide is capable of being expressed as part of a fusion protein containing the NLS; and an ADC1 transcription termination signal. The NLS from SV40 large T comprises a 7 amino acid stretch (PKKKRKV) (SEQ ID NO:20) that has been successfully used in targeting proteins into the yeast nucleus (Benton et al., 1990, Mol. Cell. Biol. 10:353-360). […]

T1 sequence (P62942 whole entry): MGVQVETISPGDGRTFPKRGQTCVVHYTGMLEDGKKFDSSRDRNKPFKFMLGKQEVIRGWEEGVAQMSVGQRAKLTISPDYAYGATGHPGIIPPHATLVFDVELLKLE

As for “5′-CCCUGAUGGUAGACCGGGGUG-3′ (chemistry not fully specified) [RNA inhibitor]”, the “growth in SC-TRP-LEU in the absence of 5-FOA, in the presence of the inhibitor” value in series [1] (RNA inhibitor at 100 nM) was “able to grow”. The “growth in media containing 5-FOA and uracil” value in series [1] (RNA inhibitor at 100 nanomolar, without inhibitor cells are not able to grow in 5-FOA) is reported as “Growth is evident”. Besides, in the series with VEGF, the “binding affinity to VEGF” value is “high affinity”.
In the case of “RAS effector peptide: RAS amino acids 17-40, from a region important for interaction with RAF, expressed from pPEVRAS-E (SALTIQLIQNHFVDEYDPTIEDSY; UniProt P01112 17-40, looked up, fragment)”, the “β-galactosidase activity (lacZ reporter) of diploids” value in series [2] (YULH2RAS (pPEVRAS-E) mated to N106′(RAS-GBD), control diploids are LACZ+) is given as “negative for β-galactosidase activity”. Moreover, the “growth of diploids on media lacking uracil (URA3 reporter)” value in series [2] (YULH2RAS (pPEVRAS-E) mated to N106′(RAS-GBD), control diploids are URA+) was “unable to grow on media lacking uracil”. Besides, in series [2] (YULH2RAS (pPEVRAS-E) mated to N106′(RAS-GBD), control diploids unable to grow), the “growth of diploids on medium containing 5-FOA” value is listed as “grow on medium containing 5-FOA”. The “inhibition of the protein-protein interaction” value in series [2] (peptide expressed in the yeast nucleus from pPEV1) is on record as “inhibits the interaction”.
